Assay [1] deals with recombinant human IL-1 (human). Description: cell-based or functional assay.
Assay [2] has as its target CNTFRα:β1 (CNTFRα and gp130) on PC12D cells (UniProt Q08406). Description: Scatchard analysis of 125I-CNTF saturation binding on PC12D cells, two-site fit; high affinity site, interpreted as the intermediate of CNTF, CNTFRα and gp130.
Assay [3] addresses CNTF receptor on EW-1 cells (CNTFRα, gp130 and LIFRβ) (UniProt P26992). Nature of the assay: Scatchard analysis on EW-1 cells, two-site fit; site not assigned in words.
In assay [4] the target is CNTFRα on PC12D cells (UniProt Q08406). Description: Scatchard analysis of 125I-CNTF saturation binding on PC12D cells, two-site fit; low affinity site, said to correspond to CNTF with CNTFRα.
Assay [5] deals with human IL-13 (human) (UniProt P35225). Nature of the assay: cell-based or functional assay.
Assay [6] concerns the target human IL-4 (human) (UniProt P05112). Nature of the assay: cell-based or functional assay.

human IL-4 (human), sequence (P05112 25-153 limits assumed): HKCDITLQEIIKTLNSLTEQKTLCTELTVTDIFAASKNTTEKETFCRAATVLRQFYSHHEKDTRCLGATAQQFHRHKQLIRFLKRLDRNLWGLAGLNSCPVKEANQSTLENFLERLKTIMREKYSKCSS
human IL-13 (human), sequence (P35225 35-146 limits assumed): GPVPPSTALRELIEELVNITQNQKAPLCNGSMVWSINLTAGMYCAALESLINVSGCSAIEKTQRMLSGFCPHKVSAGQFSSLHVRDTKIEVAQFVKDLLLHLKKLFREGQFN
IL-1-RI.Fc, sequence (P14778 18-336): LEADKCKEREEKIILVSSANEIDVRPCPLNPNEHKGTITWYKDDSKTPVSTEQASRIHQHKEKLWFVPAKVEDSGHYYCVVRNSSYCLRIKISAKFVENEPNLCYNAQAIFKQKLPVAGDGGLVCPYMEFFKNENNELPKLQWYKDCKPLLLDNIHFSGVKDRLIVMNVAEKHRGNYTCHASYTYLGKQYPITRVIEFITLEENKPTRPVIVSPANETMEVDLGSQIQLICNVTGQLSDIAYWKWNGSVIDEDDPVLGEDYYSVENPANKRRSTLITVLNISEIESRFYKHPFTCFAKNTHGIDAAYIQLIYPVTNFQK
CNTF receptor on EW-1 cells (CNTFRα, gp130 and LIFRβ), sequence (P26992 23-342 limits assumed, chain 1 of 3): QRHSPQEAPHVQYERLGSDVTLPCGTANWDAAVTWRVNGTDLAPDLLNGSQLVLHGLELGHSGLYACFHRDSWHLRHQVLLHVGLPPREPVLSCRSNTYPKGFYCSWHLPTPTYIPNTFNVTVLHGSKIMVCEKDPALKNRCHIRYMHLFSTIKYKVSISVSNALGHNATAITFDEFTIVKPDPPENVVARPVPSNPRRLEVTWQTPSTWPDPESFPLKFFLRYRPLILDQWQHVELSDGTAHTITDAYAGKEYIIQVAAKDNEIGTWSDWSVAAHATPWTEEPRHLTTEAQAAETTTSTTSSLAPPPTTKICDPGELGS
CNTF receptor on EW-1 cells (CNTFRα, gp130 and LIFRβ), sequence (P40189 23-918 limits assumed, chain 2 of 3, further chain): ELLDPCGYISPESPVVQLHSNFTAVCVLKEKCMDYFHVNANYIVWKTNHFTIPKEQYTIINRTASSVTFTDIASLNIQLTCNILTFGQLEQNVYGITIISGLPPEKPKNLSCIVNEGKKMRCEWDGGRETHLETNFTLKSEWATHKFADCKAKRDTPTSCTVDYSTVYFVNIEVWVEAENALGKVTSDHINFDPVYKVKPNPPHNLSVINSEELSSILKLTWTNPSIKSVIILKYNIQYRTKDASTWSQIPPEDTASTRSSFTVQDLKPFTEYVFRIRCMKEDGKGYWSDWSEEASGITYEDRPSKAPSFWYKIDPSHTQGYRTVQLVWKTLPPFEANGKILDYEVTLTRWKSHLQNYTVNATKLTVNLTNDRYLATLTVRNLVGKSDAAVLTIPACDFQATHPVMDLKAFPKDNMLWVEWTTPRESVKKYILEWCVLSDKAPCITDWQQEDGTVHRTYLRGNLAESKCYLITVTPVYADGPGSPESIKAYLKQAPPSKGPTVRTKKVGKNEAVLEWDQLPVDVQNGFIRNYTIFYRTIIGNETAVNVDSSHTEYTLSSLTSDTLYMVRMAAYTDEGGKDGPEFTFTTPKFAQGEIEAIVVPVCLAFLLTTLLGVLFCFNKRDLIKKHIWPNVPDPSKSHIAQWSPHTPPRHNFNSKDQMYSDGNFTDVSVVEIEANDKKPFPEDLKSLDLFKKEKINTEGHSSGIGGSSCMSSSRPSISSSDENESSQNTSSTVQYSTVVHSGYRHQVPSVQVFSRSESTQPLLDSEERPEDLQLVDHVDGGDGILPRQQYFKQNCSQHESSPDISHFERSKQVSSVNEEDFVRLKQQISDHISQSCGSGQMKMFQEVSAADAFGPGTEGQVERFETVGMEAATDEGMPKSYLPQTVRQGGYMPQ
CNTF receptor on EW-1 cells (CNTFRα, gp130 and LIFRβ), sequence (P42702 45-1097 limits assumed, chain 3 of 3, further chain): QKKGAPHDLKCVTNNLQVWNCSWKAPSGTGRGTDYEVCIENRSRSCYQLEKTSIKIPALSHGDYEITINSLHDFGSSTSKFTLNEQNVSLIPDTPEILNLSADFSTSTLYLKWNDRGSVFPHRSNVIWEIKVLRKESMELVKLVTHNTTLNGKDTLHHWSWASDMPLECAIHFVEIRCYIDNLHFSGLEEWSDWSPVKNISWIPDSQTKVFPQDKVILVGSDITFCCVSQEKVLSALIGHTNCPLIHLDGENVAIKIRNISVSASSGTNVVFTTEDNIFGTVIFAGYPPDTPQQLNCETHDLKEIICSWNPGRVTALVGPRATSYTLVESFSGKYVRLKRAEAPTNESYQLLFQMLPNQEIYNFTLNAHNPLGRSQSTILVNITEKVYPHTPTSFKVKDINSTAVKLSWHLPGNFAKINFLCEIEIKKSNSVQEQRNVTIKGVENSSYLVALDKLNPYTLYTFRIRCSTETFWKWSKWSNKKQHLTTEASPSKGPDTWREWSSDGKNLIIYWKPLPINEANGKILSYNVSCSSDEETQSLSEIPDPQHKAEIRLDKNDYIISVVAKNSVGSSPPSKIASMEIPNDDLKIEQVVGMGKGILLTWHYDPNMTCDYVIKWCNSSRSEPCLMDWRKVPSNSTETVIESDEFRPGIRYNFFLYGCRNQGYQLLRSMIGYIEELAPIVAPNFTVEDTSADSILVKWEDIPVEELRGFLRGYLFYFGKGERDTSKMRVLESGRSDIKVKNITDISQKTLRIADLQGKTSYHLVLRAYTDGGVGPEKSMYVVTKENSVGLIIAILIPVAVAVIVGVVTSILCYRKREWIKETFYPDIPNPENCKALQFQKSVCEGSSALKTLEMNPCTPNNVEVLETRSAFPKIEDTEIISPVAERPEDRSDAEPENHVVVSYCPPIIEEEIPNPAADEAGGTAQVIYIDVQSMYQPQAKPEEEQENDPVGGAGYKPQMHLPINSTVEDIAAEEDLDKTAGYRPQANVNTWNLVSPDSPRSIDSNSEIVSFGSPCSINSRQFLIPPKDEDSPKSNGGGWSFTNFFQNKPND
CNTFRα:β1 (CNTFRα and gp130) on PC12D cells, sequence (Q08406 23-342 limits assumed, chain 1 of 2): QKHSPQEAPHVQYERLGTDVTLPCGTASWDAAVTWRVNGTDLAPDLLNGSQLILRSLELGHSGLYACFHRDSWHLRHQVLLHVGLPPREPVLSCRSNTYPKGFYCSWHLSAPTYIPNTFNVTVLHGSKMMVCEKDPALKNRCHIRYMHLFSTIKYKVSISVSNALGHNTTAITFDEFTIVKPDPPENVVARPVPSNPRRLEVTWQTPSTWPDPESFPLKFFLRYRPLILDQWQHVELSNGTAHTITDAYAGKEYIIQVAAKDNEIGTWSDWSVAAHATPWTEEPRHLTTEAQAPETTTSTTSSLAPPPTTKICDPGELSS
CNTFRα:β1 (CNTFRα and gp130) on PC12D cells, sequence (P40190 23-918 limits assumed, chain 2 of 2, further chain): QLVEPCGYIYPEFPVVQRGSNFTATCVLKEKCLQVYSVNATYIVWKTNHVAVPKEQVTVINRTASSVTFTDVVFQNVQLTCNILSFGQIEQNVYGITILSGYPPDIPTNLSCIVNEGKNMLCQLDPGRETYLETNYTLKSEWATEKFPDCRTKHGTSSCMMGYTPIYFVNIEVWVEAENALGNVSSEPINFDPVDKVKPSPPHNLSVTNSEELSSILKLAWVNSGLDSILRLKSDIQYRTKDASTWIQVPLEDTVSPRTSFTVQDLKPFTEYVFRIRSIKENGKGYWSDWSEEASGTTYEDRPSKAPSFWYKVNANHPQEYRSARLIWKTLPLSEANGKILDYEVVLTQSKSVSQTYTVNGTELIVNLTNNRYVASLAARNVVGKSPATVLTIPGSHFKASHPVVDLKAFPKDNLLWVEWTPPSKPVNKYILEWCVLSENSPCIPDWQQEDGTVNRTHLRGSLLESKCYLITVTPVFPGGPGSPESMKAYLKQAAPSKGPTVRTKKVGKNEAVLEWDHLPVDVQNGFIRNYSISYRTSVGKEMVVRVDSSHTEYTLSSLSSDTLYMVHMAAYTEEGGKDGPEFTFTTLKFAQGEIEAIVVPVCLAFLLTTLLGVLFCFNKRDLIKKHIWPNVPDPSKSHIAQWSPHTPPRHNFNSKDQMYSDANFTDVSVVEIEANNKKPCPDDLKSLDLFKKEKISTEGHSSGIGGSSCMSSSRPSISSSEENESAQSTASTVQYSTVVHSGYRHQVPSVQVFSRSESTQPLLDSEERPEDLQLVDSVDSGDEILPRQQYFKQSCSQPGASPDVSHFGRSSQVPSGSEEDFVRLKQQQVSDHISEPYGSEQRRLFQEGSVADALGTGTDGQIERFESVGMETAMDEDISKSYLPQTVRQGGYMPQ
CNTFRα on PC12D cells, sequence (Q08406 23-342 limits assumed): as the sequence (Q08406 23-342 limits assumed, chain 1 of 2) above

Take “IL-1-RI.Fc (from UniProt P14778 18-336) (Fc fusion)”: the IL-1-dependent production of IL-6 by MRC5 cells: IL-1 concentration blocked in assay [1] is 10 to 20 pM.
In the case of 125I-CNTF (ligand), the Kd in assay [2] was determined as 0.009 nM; in assay [3], 1 nM; in assay [4] it was 3.4 nM.
As to “IL-4/IL-13 Trap 1132 (from UniProt P24394 26-232; P78552 27-343) (Fc fusion)”, the TF1 bioassay: activity against IL-4/IL-13 Trap 943 (fold (against Trap 943)) in assay [5] was 2 to 3.
In assay [6], “IL-13Rα1.IL-4Rα.Fc (from UniProt P78552 22-343; P24394 26-232) (Fc fusion)” had a TF1 bioassay: IL-4 concentration at which growth is inhibited by 50% (10 nM trap) of 3 to 4 nM and a TF1 bioassay: IL-4 concentration up to which 10 nM trap blocks growth of 1 nM. Further, in assay [5], the TF1 bioassay: IL-13 concentration at which growth is inhibited by 50% (10 nM trap) fell in the range of 4 to 5 nM and the TF1 bioassay: IL-13 concentration up to which 10 nM trap blocks growth is 2 nM.
“IL-4Rα.IL-13Rα1.Fc (from UniProt P24394 26-232; P78552 22-343) (Fc fusion)”: in assay [5], the TF1 bioassay: IL-13 concentration at which growth is inhibited by 50% (10 nM trap) was in the range of 4 to 5 nM and the TF1 bioassay: IL-13 concentration up to which 10 nM trap blocks growth is 2 nM.

By Kd is commonly meant the free concentration of one partner at which half of the binding sites on the other are occupied at equilibrium, for simple one-to-one binding. Low readings indicate tighter binding, high ones weaker binding.

The values above are taken from patent US20020164690A1.
